In paper PMC3673938, “Two Distinct Calmodulin Binding Sites in the Third Intracellular Loop and Carboxyl Tail of Angiotensin II (AT1A) Receptor” (PLoS ONE, 2013):

Key:
Conditions in all cases: both partners purified
[1] = molecular target: T1, dansyl-calmodulin (bovine brain) (bovine, UniProt P62157 1-149, dansyl (0.18–0.34 mol of dansyl moiety per mol of CaM), site not stated); assay: dansyl-CaM fluorescence emission spectrum; 106 nM dansyl-CaM, 500 nM peptide, 0.1 mM calcium, 1 hour at room temperature; excitation 340 nm, emission 425–600 nm; compared with dansyl-CaM in 10 mM EGTA
T1 construct: calmodulin, bovine brain, dansylated; also called dansyl-CaM; source: CaM purified from bovine brain (bought: Calbiochem), labelled with dansyl chloride

[2] = molecular target: T1, dansyl-calmodulin (bovine brain); assay: other fluorescence titration; peptides (25–2000 nM) with 147 nM dansyl-CaM, 0.1 mM calcium, 1 hour at room temperature; emission at 485 nm; apparent dissociation constants
[3] = molecular target: T2, calmodulin purified from bovine brain (bovine, UniProt P62157 1-149); assay: pull-down; 50 pmol GST-fusion protein with purified bovine brain CaM (50 pmol) in 250 µl of 100 mM Tris-HCl pH 7.5 with 0.1 mM CaCl2; 4°C; glutathione-sepharose 4B beads; immunoblot with anti-CaM; for the mutants density of CaM against loaded GST-fusion protein
T2 construct: calmodulin, bovine brain; also called CaM; pure bovine brain CaM; source: purified from bovine brain; bought: Calbiochem

B1: ATct(302–317) peptide (peptide)
peptide: YGFLGKKFKKYFLQLL
notes: also called 1-5-10 motif peptide of the carboxyl tail; source: synthetic peptide (MUSC Proteogenomics Facility, HPLC purified)
In the case of B1, the “fold increase in dansyl-CaM fluorescence intensity at 482 nm (500 nM peptide)” value [1] is reported as ~3.5 fold and the Kd [2] is reported as 79.4 nM.

B2: ATct(302–317)F309A peptide (peptide)
peptide: YGFLGKKAKKYFLQLL
notes: AT1A receptor carboxyl tail, amino acids 302–317, with F309A; source: synthetic peptide (MUSC Proteogenomics Facility, HPLC purified)
With B2 the Kd [2] was 308 nM.

B3: ATct(302–317)F313A peptide (peptide)
peptide: YGFLGKKFKKYALQLL
notes: AT1A receptor carboxyl tail, amino acids 302–317, with F313A; source: synthetic peptide (MUSC Proteogenomics Facility, HPLC purified)
B3 showed a Kd [2] of 388 nM.

B4: GST-ATi3N(213–234) (domain or fragment)
chain: TSYTLIWKALKKAYEIQKNKPR
notes: also called GST-N-terminus of the i3 loop; source: E. coli BL21, purified (glutathione sepharose 4B); not shown: GST, N-terminal, kept
B4: binds [3].

B5: GST-ATctN(297–324) (domain or fragment)
chain: LNPLFYGFLGKKFKKYFLQLLKYIPPKA
notes: N-terminal part of the carboxyl tail of the AT1A receptor, amino acids 297–324; stop codon after 324A in GST-ATct(297–359); also called GST-N-terminus of carboxyl tail; source: E. coli BL21, purified (glutathione sepharose 4B); not shown: GST, N-terminal, kept
B5: binds [3].

B6: GST-ATi3(213–242) (domain or fragment)
chain: TSYTLIWKALKKAYEIQKNKPRNDDIFRII
notes: amplified from pcDNA3.1-AT1A receptor; cloned in pGEX-4T-1 at BamH I and EcoR I downstream of GST; also called GST-i3 loop; i3 loop of the AT1A receptor; source: E. coli BL21, purified (glutathione sepharose 4B); not shown: GST, N-terminal, kept
B6: binds [3].

B7: ATi3(214–231) peptide (peptide)
peptide: SYTLIWKALKKAYEIQKN
notes: also called 1–12 motif peptide of the i3 loop; source: synthetic peptide (MUSC Proteogenomics Facility, HPLC purified)
B7 was tested, and the “fold increase in dansyl-CaM fluorescence intensity at 486 nm (500 nM peptide)” value [1] was ~3.2 fold and the Kd [2] was 177 nM.
